The source of these data is PMC9851909, “Structure of a volume-regulated heteromeric LRRC8A/C channel” (Nature Structural & Molecular Biology, 2022).

Several values for one entry are separate records, joined by “and”; a condition that tells them apart may be missing. Identical values can stand only once.

The target of data set [1] is murine LRRC8C, full length (murine) (UniProt Q8R502). The experiment in a line: affinity purification with mass spectrometry; differentially tagged murine LRRC8A (or LRRC8A^SAM) and LRRC8C co-expressed in HEK293S GnTI- or LRRC8-/- cells at A:C DNA ratios of 1:1 or 1:3; tandem affinity purification (Ni-NTA, then Streptactin) in digitonin, 25 mM Tris pH 8.5, 250 mM NaCl, 4 °C; LC-MS/MS absolute quantification with isotope-labelled peptides.

For data set [2] the target is unchanged. In words: cryo-EM structure; tandem-purified LRRC8A/C (A:C DNA 1:1 and 1:3) in digitonin with tag-free Sb1 added at a 1.5 molar excess before vitrification; C1; high resolution only for the 1:1 sample.
Data set [3] deals with the molecule itself. In words: cryo-EM structure; homomeric LRRC8C at 5 mg/ml in digitonin, three data sets, two of them with Sb1 added at a 1:1.5 molar excess (per LRRC8C subunit) as negative control; C7 symmetry.
Data set [4] concerns the target T1, endogenous LRRC8C of HEK293 cells (human (endogenous in HEK293T), UniProt Q8TDW0 1-803).
T1 construct: LRRC8C, endogenous in HEK293 cells; also called C subunit; source: endogenous, HEK293T and HEK293 LRRC8^B,D,E-/- cells, lysate in 2% GDN
T1 sequence (looked up): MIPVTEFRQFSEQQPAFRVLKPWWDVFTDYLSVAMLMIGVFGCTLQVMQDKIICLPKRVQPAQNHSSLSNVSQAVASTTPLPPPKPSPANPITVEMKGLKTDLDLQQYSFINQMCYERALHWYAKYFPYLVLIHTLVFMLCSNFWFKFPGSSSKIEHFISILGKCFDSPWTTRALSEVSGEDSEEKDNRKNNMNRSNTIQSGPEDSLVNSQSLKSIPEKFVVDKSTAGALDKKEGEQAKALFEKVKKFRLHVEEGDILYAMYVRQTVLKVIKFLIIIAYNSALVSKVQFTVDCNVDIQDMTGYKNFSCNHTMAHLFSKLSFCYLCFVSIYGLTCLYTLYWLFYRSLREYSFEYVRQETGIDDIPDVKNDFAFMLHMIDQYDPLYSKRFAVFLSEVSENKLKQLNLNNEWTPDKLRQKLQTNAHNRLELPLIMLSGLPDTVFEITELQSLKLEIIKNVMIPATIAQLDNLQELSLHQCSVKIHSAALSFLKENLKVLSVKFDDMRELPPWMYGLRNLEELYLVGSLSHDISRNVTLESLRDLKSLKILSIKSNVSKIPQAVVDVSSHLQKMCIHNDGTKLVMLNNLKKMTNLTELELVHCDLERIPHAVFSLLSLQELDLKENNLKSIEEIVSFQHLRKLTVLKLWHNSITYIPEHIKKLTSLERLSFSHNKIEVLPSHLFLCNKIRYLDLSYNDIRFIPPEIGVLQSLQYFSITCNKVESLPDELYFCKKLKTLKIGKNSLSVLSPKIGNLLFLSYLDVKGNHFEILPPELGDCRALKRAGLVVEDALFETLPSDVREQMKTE
In words: affinity purification with mass spectrometry; pairs of endogenous LRRC8 subunits in the channels isolated on SBP-tagged Sb1 from HEK293T (WT) or LRRC8^B,D,E-/- cells; shotgun LC-MS/MS and absolute quantification with two isotope-labelled reference peptides per subunit. As to conditions: partners not purified.

In data set [5] the target is T2, endogenous LRRC8A of HEK293 cells (human (endogenous in HEK293T), UniProt Q8IWT6).
T2 construct: LRRC8A, endogenous in HEK293 cells; also called A subunit; SWELL1; source: endogenous, HEK293T and HEK293 LRRC8^B,D,E-/- cells, lysate in 2% GDN; isolated on SBP-tagged Sb1
In words: affinity purification with mass spectrometry; pairs of the bait Sb1: endogenous LRRC8 channels from HEK293T (WT) or LRRC8^B,D,E-/- cells isolated on SBP-tagged Sb1 and Streptactin resin (Sb1 either expressed in the same cells or purified and bound to the resin before the lysate was loaded; which protocol for which sample is not told); 2% GDN lysis, 36 mM Tris pH 8.5, 150 mM NaCl; tryptic digest, LC-MS/MS.

By stoichiometry N is commonly meant the number of molecules, sites or subunits per partner or assembly. “LRRC8A^SAM, construct for co-expression with LRRC8C (from UniProt Q80WG5 1-67; Q80WG5 93-810)”: the stoichiometry N in data set [1] was 2 A:C.
As for “murine LRRC8A (from UniProt Q80WG5 1-810) (natural protein)”, the stoichiometry N is 2 A:C in data set [2]; 2 A:C and 1.8 A:C in data set [1].

B1: murine LRRC8C, full length (natural protein, UniProt Q8R502 1-803, looked up)
chain: MIPVTEFRQFSEQQPAFRVLKPWWDVFTDYLSVAMLMIGVFGCTLQVMQDKIICLPKRVQPAQNHSSVPNVSQAVISTTPLPPPKPSPTNPATVEMKGLKTDLDLQQYSFINQMCYERALHWYAKYFPYLVLIHTLVFMLCSNFWFKFPGSSSKIEHFISILGKCFDSPWTTRALSEVSGEDSEEKDNRKNNMNRSGTIQSGPEGNLVRSQSLKSIPEKFVVDKSAAGALDKKEGEQAKALFEKVKKFRLHVEEGDILYAMYVRQTVLKVIKFLIIIAYNSALVSKVQFTVDCNVDIQDMTGYKNFSCNHTMAHLFSKLSFCYLCFVSIYGLTCLYTLYWLFYRSLREYSFEYVRQETGIDDIPDVKNDFAFMLHMIDQYDPLYSKRFAVFLSEVSENKLKQLNLNNEWTPDKLRQKLQTNAHNRLELPLIMLSGLPDTVFEITELQSLKLEIIKNVMIPATIAQLDNLQELCLHQCSVKIHSAALSFLKENLKVLSVKFDDMRELPPWMYGLRNLEELYLVGSLSHDISKNVTLESLRDLKSLKILSIKSNVSKIPQAVVDVSSHLQKMCVHNDGTKLVMLNNLKKMTNLTELELVHCDLERIPHAVFSLLSLQELDLKENNLKSIEEIVSFQHLRKLTVLKLWYNSIAYIPEHIKKLTSLERLFFSHNKVEVLPSHLFLCNKIRYLDLSYNDIRFIPPEIGVLQSLQYFSITCNKVESLPDELYFCKKLKTLKIGKNSLSVLSPKIGNLLFLSYLDIKGNHFEVLPPELGDCRALKRAGLVVEDALFETLPSDVREQMKAD
notes: LRRC8C, mouse; A remnant of the 3C site probably stays at the C-terminus; also called C subunit; C1; source: HEK293 LRRC8-/- cells (homomer; LRRC8A/C without Sb1; LRRC8A^SAM/C) or HEK293S GnTI- cells (LRRC8A/C/Sb1 samples), transfected, purified (Streptactin, SEC; tandem purification for heteromers) in digitonin; not shown: Venus, C-terminal, cleaved; myc, C-terminal, cleaved; SBP, C-terminal, …
As to B1, in data set [3], the “stoichiometry N” value worked out at 7.

B2: endogenous LRRC8A of HEK293 cells (natural protein, human (endogenous in HEK293T), UniProt Q8IWT6 1-810, looked up)
chain: MIPVTELRYFADTQPAYRILKPWWDVFTDYISIVMLMIAVFGGTLQVTQDKMICLPCKWVTKDSCNDSFRGWAAPGPEPTYPNSTILPTPDTGPTGIKYDLDRHQYNYVDAVCYENRLHWFAKYFPYLVLLHTLIFLACSNFWFKFPRTSSKLEHFVSILLKCFDSPWTTRALSETVVEESDPKPAFSKMNGSMDKKSSTVSEDVEATVPMLQRTKSRIEQGIVDRSETGVLDKKEGEQAKALFEKVKKFRTHVEEGDIVYRLYMRQTIIKVIKFILIICYTVYYVHNIKFDVDCTVDIESLTGYRTYRCAHPLATLFKILASFYISLVIFYGLICMYTLWWMLRRSLKKYSFESIREESSYSDIPDVKNDFAFMLHLIDQYDPLYSKRFAVFLSEVSENKLRQLNLNNEWTLDKLRQRLTKNAQDKLELHLFMLSGIPDTVFDLVELEVLKLELIPDVTIPPSIAQLTGLKELWLYHTAAKIEAPALAFLRENLRALHIKFTDIKEIPLWIYSLKTLEELHLTGNLSAENNRYIVIDGLRELKRLKVLRLKSNLSKLPQVVTDVGVHLQKLSINNEGTKLIVLNSLKKMANLTELELIRCDLERIPHSIFSLHNLQEIDLKDNNLKTIEEIISFQHLHRLTCLKLWYNHIAYIPIQIGNLTNLERLYLNRNKIEKIPTQLFYCRKLRYLDLSHNNLTFLPADIGLLQNLQNLAITANRIETLPPELFQCRKLRALHLGNNVLQSLPSRVGELTNLTQIELRGNRLECLPVELGECPLLKRSGLVVEEDLFNTLPPEVKERLWRADKEQA
notes: LRRC8A, endogenous in HEK293 cells; also called A subunit; SWELL1; source: endogenous, HEK293T and HEK293 LRRC8^B,D,E-/- cells, lysate in 2% GDN; isolated on SBP-tagged Sb1
On to B2, for which the “stoichiometry N” value in data set [4] was 2.9 A:C and 1.8 A:C.

B3: SBP-tagged sybody Sb1 (VHH)
VHH: QVQLVESGGGLVQAGGSLRLSCAASGFPVGRHFMYWYRQAPGKEREWVAAIYSYGEYTEYADSVKGRFTISRDNAKNTVYLQMNSLKPEDTAVYYCYVYVGNEYWGQGTQVTVSA
notes: as the chain of m3 (sybody Sb1), here with a C-terminal 3C site, myc tag and SBP tag (pcDXc3MS); they are in PDB 8B41 and PDB 7P5V; also called SBP-tagged Sb1; immobilized Sb1; not shown: myc, C-terminal, kept; SBP, C-terminal, kept
For the molecule B3, the binding result in data set [5] is “binds”.
